Results published in US20180161335.

T1: RAB11A, N-terminal 6x His-tag, purified from E. coli, preloaded with BODIPY FL GDP, P62491
T1 chain: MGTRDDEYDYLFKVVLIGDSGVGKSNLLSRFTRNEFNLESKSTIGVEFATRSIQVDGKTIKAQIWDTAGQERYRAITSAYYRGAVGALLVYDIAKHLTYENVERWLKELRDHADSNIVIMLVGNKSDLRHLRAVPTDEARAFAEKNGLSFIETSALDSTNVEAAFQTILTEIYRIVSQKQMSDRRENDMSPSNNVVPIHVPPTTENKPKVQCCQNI

T2: RAB5A, N-terminal 6x His-tag, purified from E. coli, preloaded with BODIPY FL GDP, P20339
T2 chain: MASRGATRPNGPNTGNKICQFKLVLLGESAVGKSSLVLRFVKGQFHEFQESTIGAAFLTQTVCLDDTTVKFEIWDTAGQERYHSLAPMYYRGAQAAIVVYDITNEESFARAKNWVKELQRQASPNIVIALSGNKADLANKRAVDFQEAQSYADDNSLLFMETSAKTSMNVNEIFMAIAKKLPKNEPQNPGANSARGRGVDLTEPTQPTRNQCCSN


Columns and labels:
[1] = target: T1, RAB11A, N-terminal 6x His-tag, purified …
[2] = target: T2, RAB5A, N-terminal 6x His-tag, purified …
[3] = target: ARF3, purified from E. coli, preloaded with BODIPY FL GDP, P61204
Chain of ARF3, purified from E. coli, preloaded with BODIPY FL GDP, P61204 (P61204 whole entry): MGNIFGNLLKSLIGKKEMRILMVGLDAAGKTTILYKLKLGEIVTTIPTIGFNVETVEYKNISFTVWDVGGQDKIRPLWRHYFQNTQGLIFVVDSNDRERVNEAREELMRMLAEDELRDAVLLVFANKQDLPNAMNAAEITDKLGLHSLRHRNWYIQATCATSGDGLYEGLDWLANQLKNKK

Protein	guanine exchange activity (BODIPY-GDP fluorescence) [1]	guanine exchange activity (BODIPY-GDP fluorescence) [2]	guanine exchange activity (BODIPY-GDP fluorescence) [3]	guanine exchange activity (BODIPY-GDP fluorescence) (the other GTPases tested)
DENND2D, 2x HA-tagged, in HEK cell lysate (protein) MEGQVVGRVFRLFQRRLLQLRAGPPQDNSGEALKEPERAQEHSLPNFAGGQHFFEYLLVVSLKKKRSEDDYEPIITYQFPKRENLLRGQQEEEERLLKAIPLFCFPDGNEWASLTEYPRETFSFVLTNVDGSRKIGYCRRLLPAGPGPRLPKVYCIISCIGCFGLFSKILDEVEKRHQISMAVIYPFMQGLREAAFPAPGKTVTLKSFIPDSGTEFISLTRPLDSHLEHVDFSSLLHCLSFEQILQIFASAVLERKIIFLAEGLSTLSQCIHAAAALLYPFSWAHTYIPVVPESLLATVCCPTPFMVGVQMRFQQEVMDSPMEEVLLVNLCEGTFLMSVGDEKDILPPKLQDDILDSLGQGINELKTAEQINEHVSGPFVQFFVKIVGHYASYIKREANGQGHFQERSFCKALTSKTNRRFVKKFVKTQLFSLFIQEAEKSKNPPAGYFQQKILEYEEQKKQKKPREKTVK	neither RABEX-5, DENN2D, or DsRed displayed activity on RAB11A	did not display guanine exchange activity on RAB5A	–	–
RABEX5, 2x HA-tagged, in HEK cell lysate (protein) MSLKSERRGIHVDQSDLLCKKGCGYYGNPAWQGFCSKCWREEYHKARQKQIQEDWELAERLQREEEEAFASSQSSQGAQSLTFSKFEEKKTNEKTRKVTTVKKFFSASSRVGSKKEIQEAKAPSPSINRQTSIETDRVSKEFIEFLKTFHKTGQEIYKQTKLFLEGMHYKRDLSIEEQSECAQDFYHNVAERMQTRGKVPPERVEKIMDQIEKYIMTRLYKYVFCPETTDDEKKDLAIQKRIRALRWVTPQMLCVPVNEDIPEVSDMVVKAITDIIEMDSKRVPRDKLACITKCSKHIFNAIKITKNEPASADDFLPTLIYIVLKGNPPRLQSNIQYITRFCNPSRLMTGEDGYYFTNLCCAVAFIEKLDAQSLNLSQEDFDRYMSGQTSPRKQEAESWSPDACLGVKQMYKNLDLLSQLNERQERIMNEAKKLEKDLIDWTDGIAREVQDIVEKYPLEIKPPNQPLAAIDSENVENDKLPPPLQPQVYAG	neither RABEX-5, DENN2D, or DsRed displayed activity on RAB11A	–	–	–
C9ORF72 isoform B, 2x HA-tagged, in HEK cell lysate (protein) MSTLCPPPSPAVAKTEIALSGKSPLLAATFAYWDNILGPRVRHIWAPKTEQVLLSDGEITFLANHTLNGEILRNAESGAIDVKFFVLSEKGVIIVSLIFDGNWNGDRSTYGLSIILPQTELSFYLPLHRVCVDRLTHIIRKGRIWMHKERQENVQKIILEGTERMEDQGQSIIPMLTGEVIPVMELLSSMKSHSVPEEIDIADTVLNDDDIGDSCHEGFLLK	–	–	C9ORF72 isoforms A and B stimulated guanine exchange on ARF3	Significant activity was not observed using both C9ORF72 isoforms on the other GTPases tested
